In the Human Domainome abundance scans (Beltran et al. 2025) one finds abundance fitness data, which are given here for 34 variants.

± gives the uncertainty stated by the source.

To fix the notation:
B1: GA-binding protein alpha chain, residues 172 to 250; numbered along this chain, Q06546 (parent)
chain: GYRKEQERLGIPYDPIQWSTDQVLHWVVWVMKEFSMTDIDLTTLNISGRELCSLNQEDFFQRVPRGEILWSHLELLRKY

In the data set the parent is B1. Nature of the data set: abundance fitness (aPCA) (normalised: wild type 0, dead -1); higher = more abundant; growth selection in yeast, the domain comes from the species named. The note with it: Homo sapiens.
For the variant GYRKEQERLGIPYDPIQWSTDQVLHWVVWVMKEASMTDIDLTTLNISGRELCSLNQEDFFQRVPRGEILWSHLELLRKY [F34A], the abundance fitness is -0.031 ± 0.037. In the case of GYRKEQERLGIPYDPIQWSTDQVLHWVVWVMKEESMTDIDLTTLNISGRELCSLNQEDFFQRVPRGEILWSHLELLRKY [F34E], the abundance fitness is -0.056 ± 0.057. Turning to GYRKEQERLGIPYDPIQWSTDQVLHWVVWVMKECSMTDIDLTTLNISGRELCSLNQEDFFQRVPRGEILWSHLELLRKY [F34C], the abundance fitness is -0.068 ± 0.068. GYRKEQERLGIPYDPIQWSTDQVLHWVVWVPKEFSMTDIDLTTLNISGRELCSLNQEDFFQRVPRGEILWSHLELLRKY [M31P]: the abundance fitness was -1.01 ± 0.16.

Regarding GYRKEQERLGIPYDPIQWSTDQVLHWVVWVRKEFSMTDIDLTTLNISGRELCSLNQEDFFQRVPRGEILWSHLELLRKY [M31R], the abundance fitness was -0.155 ± 0.036. Take GYRKEQERLGIPYDPIQWSTDQVLHWVVWVVKEFSMTDIDLTTLNISGRELCSLNQEDFFQRVPRGEILWSHLELLRKY [M31V]: the abundance fitness is -0.036 ± 0.033. Regarding GYRKEQERLGIPYDPIQWSTDQVLHWVVWVAKEFSMTDIDLTTLNISGRELCSLNQEDFFQRVPRGEILWSHLELLRKY [M31A], the abundance fitness is -0.046 ± 0.051.

GYRKEQERLGIPYDPIQWSTDQVLHWVVWVGKEFSMTDIDLTTLNISGRELCSLNQEDFFQRVPRGEILWSHLELLRKY [M31G]: the abundance fitness was -0.089 ± 0.037. Turning to GYRKEQERLGIPYDPIQWSTDQVLHWVVWVIKEFSMTDIDLTTLNISGRELCSLNQEDFFQRVPRGEILWSHLELLRKY [M31I], the abundance fitness was -0.031 ± 0.076.

GYRKEQERLGIPYDPIQWSTDQVLHWVVWVLKEFSMTDIDLTTLNISGRELCSLNQEDFFQRVPRGEILWSHLELLRKY [M31L]: the abundance fitness is -0.11 ± 0.037.

For GYRKEQERLGIPYDPIQWSTDQVLHWVVWVYKEFSMTDIDLTTLNISGRELCSLNQEDFFQRVPRGEILWSHLELLRKY [M31Y], the abundance fitness was -0.322 ± 0.088. Turning to GYRKEQERLGIPYDPIQWSTDQVLHWVVWVKKEFSMTDIDLTTLNISGRELCSLNQEDFFQRVPRGEILWSHLELLRKY [M31K], the abundance fitness is -0.089 ± 0.079. In the case of GYRKEQERLGIPYDPIQWSTDQVLHWVVWVEKEFSMTDIDLTTLNISGRELCSLNQEDFFQRVPRGEILWSHLELLRKY [M31E] it was -0.289 ± 0.084; in that of GYRKEQERLGIPYDPIQWSTDQVLHWVVWVTKEFSMTDIDLTTLNISGRELCSLNQEDFFQRVPRGEILWSHLELLRKY [M31T], 0.018 ± 0.059. Consider GYRKEQERLGIPYDPIQWSTDQVLHWVVWVQKEFSMTDIDLTTLNISGRELCSLNQEDFFQRVPRGEILWSHLELLRKY [M31Q], for which the abundance fitness came to 0.059 ± 0.049. On to GYRKEQERLGIPYDPIQWSTDQVLHWVVWVCKEFSMTDIDLTTLNISGRELCSLNQEDFFQRVPRGEILWSHLELLRKY [M31C], for which the abundance fitness is 0.069 ± 0.078. The figure for GYRKEQERLGIPYDPIQWSTDQVLHWVVWVNKEFSMTDIDLTTLNISGRELCSLNQEDFFQRVPRGEILWSHLELLRKY [M31N] is -0.191 ± 0.099. In the case of GYRKEQERLGIPYDPIQWSTDQVLHWVVWVHKEFSMTDIDLTTLNISGRELCSLNQEDFFQRVPRGEILWSHLELLRKY [M31H] it was -0.169 ± 0.23; in that of GYRKEQERLGIPYDPIQWSTDQVLHWVVWVFKEFSMTDIDLTTLNISGRELCSLNQEDFFQRVPRGEILWSHLELLRKY [M31F], -0.09 ± 0.087; in that of GYRKEQERLGIPYDPIQWSTDQVLHWVVWVDKEFSMTDIDLTTLNISGRELCSLNQEDFFQRVPRGEILWSHLELLRKY [M31D], -0.794 ± 0.33. Consider GYRKEQERLGIPYDPIQWSTDQVLHWVVYVMKEFSMTDIDLTTLNISGRELCSLNQEDFFQRVPRGEILWSHLELLRKY [W29Y], for which the abundance fitness was -0.106 ± 0.065.

In the case of GYRKEQERLGIPYDPIQWSTDQVLHWVVWVMKSFSMTDIDLTTLNISGRELCSLNQEDFFQRVPRGEILWSHLELLRKY [E33S], the abundance fitness was -0.1 ± 0.037. For GYRKEQERLGIPYDPIQWSTDQVLHWVVWVMKAFSMTDIDLTTLNISGRELCSLNQEDFFQRVPRGEILWSHLELLRKY [E33A], the abundance fitness is -0.139 ± 0.05.

Turning to GYRKEQERLGIPYDPIQWSTDQVLHWVVWVMKGFSMTDIDLTTLNISGRELCSLNQEDFFQRVPRGEILWSHLELLRKY [E33G], the abundance fitness is -0.196 ± 0.032. As for GYRKEQERLGIPYDPIQWSTDQVLHWVVWVMKYFSMTDIDLTTLNISGRELCSLNQEDFFQRVPRGEILWSHLELLRKY [E33Y], the abundance fitness was -0.257 ± 0.078.

In the case of GYRKEQERLGIPYDPIQWSTDQVLHWVVWVMKCFSMTDIDLTTLNISGRELCSLNQEDFFQRVPRGEILWSHLELLRKY [E33C], the abundance fitness is -0.276 ± 0.063.

GYRKEQERLGIPYDPIQWSTDQVLHWVVWVMKMFSMTDIDLTTLNISGRELCSLNQEDFFQRVPRGEILWSHLELLRKY [E33M]: the abundance fitness is -0.337 ± 0.069. GYRKEQERLGIPYDPIQWSTDQVLHWVVWVMKQFSMTDIDLTTLNISGRELCSLNQEDFFQRVPRGEILWSHLELLRKY [E33Q]: the abundance fitness was -0.123 ± 0.066.

As for GYRKEQERLGIPYDPIQWSTDQVLHWVVWVMKKFSMTDIDLTTLNISGRELCSLNQEDFFQRVPRGEILWSHLELLRKY [E33K], the abundance fitness was -0.008 ± 0.065. GYRKEQERLGIPYDPIQWSTDQVLHWVVWVMKFFSMTDIDLTTLNISGRELCSLNQEDFFQRVPRGEILWSHLELLRKY [E33F]: the abundance fitness was -0.375 ± 0.071. Turning to GYRKEQERLGIPYDPIQWSTDQVLHWVVWVMKHFSMTDIDLTTLNISGRELCSLNQEDFFQRVPRGEILWSHLELLRKY [E33H], the abundance fitness was -0.092 ± 0.074. As for GYRKEQERLGIPYDPIQWSTDQVLHWVVWVMKVFSMTDIDLTTLNISGRELCSLNQEDFFQRVPRGEILWSHLELLRKY [E33V], the abundance fitness is -0.277 ± 0.036. On to GYRKEQERLGIPYDPIQWSTDQVLHWVVWVMKPFSMTDIDLTTLNISGRELCSLNQEDFFQRVPRGEILWSHLELLRKY [E33P], for which the abundance fitness is -0.26 ± 0.051.

GYRKEQERLGIPYDPIQWSTDQVLHWVVWVMKTFSMTDIDLTTLNISGRELCSLNQEDFFQRVPRGEILWSHLELLRKY [E33T]: the abundance fitness is -0.084 ± 0.056.
